Key:
[1] = target: T1, B7H3 (UniProt Q5ZPR3 29-466, limits assumed); assay: FCM or ELISA (graded summary table)
T1 sequence (looked up): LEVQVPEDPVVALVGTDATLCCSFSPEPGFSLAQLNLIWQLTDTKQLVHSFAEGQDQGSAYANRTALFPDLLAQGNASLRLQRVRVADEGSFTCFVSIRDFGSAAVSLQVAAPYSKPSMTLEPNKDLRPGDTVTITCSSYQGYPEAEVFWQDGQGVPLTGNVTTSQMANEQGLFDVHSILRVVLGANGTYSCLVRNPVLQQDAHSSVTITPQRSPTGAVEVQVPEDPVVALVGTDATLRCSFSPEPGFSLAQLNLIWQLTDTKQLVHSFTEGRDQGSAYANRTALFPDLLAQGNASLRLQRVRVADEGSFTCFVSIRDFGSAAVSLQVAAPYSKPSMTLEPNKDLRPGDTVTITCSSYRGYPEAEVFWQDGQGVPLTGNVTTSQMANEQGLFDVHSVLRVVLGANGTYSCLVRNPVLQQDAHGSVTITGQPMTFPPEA

[2] = target: T2, CD137 (UniProt Q07011 24-186, limits assumed); assay: FCM or ELISA (graded summary table)
T2 construct: also called 4-1BB

[3] = target: T3, PD-L1 (human, UniProt Q9NZQ7 19-238, limits assumed); assay: FCM or ELISA
T3 construct: The reporter assay used Raji cells expressing human PD-L1
T3 sequence (Q9NZQ7 19-238 limits assumed): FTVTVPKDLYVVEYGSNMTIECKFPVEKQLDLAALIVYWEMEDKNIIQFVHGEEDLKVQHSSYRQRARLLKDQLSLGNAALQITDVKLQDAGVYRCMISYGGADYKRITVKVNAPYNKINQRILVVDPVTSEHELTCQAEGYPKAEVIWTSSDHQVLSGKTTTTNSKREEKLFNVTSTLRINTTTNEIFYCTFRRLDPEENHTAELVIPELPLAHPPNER

| Binder | binding result [1] | binding result [2] | binding result [3] |
| --- | --- | --- | --- |
| Ly1963 (other, Tri-specific antibody B7H3 (two Fabs) / CD3 (central Fv) / CD137 (terminal Fv)) chain 1: QVQLVQSGAEVKKPGASVKVSCKASGYTFTSYVMHWVRQKPGQGLEWIGYINPYNEGTESTDKFKGRATMTSDKSTSTVYMELSSLRSEDTAVYYCASIYYGYEGTYFGVWGQGTLVTVSSASTKGPSVFPLAPSSKSTSGGTAALGCLVKDYFPEPVTVSWNSGALTSGVHTFPAVLQSSGLYSLSSVVTVPSSSLGTQTYICNVNHKPSNTKVDKKVEPKSCGGGGSGGGGSGGGGSGGGGSEVQLVESGGGLVQPGGSLRLSCAASGFTFSTYAMNWVRQAPGKGLEWVGRIRSKYNNYATYYADSVKGRFTISRDDSKNSLYLQMNSLKTEDTAVYYCVRHGNFGNSYVSWFAYWGQGTLVTVSSGGGGSDKTHTCPPCPAPEAAGPSVFLFPPKPKDTLMISRTPEVTCVVVDVSHEDPEVKFNWYVDGVEVHNAKTKPREEQYNSTYRVVSVLTVLHQDWLNGKEYKCKVSNKALPAPIEKTISKAKGQPREPQVYTLPPSREEMTKNQVSLWCLVKGFYPSDIAVEWESNGQPENNYKTTPPVLDSDGSFFLYSKLTVDKSRWQQGNVFSCSVMHEALHNHYTQKSLSLSPGGGGGSGGGGSGGGGSGGGGSQVQLVQSGAEVKKPGASVKVSCKASGYTFAGFEMHWVRQAPGQGLEWMGAIDPKTGGTDYNQKFKDRVTMTRDTSISTAYMELSRLRSDDTAVYYCARDLGYFDVWGQGTLVTVSS chain 2: QVQLVQSGAEVKKPGASVKVSCKASGYTFTSYVMHWVRQKPGQGLEWIGYINPYNEGTESTDKFKGRATMTSDKSTSTVYMELSSLRSEDTAVYYCASIYYGYEGTYFGVWGQGTLVTVSSASTKGPSVFPLAPSSKSTSGGTAALGCLVKDYFPEPVTVSWNSGALTSGVHTFPAVLQSSGLYSLSSVVTVPSSSLGTQTYICNVNHKPSNTKVDKKVEPKSCGGGGSGGGGSGGGGSGGGGSQAVVTQEPSLTVSPGGTVTLTCRSSTGAVTTSNYANWVQQKPGQAPRGLIGGTNKRAPWTPARFSGSLLGGKAALTITGAQAEDEADYYCALWYSNLWVFGGGTKLTVLGGGGSDKTHTCPPCPAPEAAGPSVFLFPPKPKDTLMISRTPEVTCVVVDVSHEDPEVKFNWYVDGVEVHNAKTKPREEQYNSTYRVVSVLTVLHQDWLNGKEYKCKVSNKALPAPIEKTISKAKGQPREPQVYTLPPSREEMTKNQVSLSCAVKGFYPSDIAVEWESNGQPENNYKTTPPVLDSDGSFFLVSKLTVDKSRWQQGNVFSCSVMHEALHNHYTQKSLSLSPGGGGGSGGGGSGGGGSGGGGSDIQMTQSPSSLSASVGDRVTITCRASQDIRSNLNWYQQKPGGAVKLLIYYTSRLHSGVPSRFSGSGSGTDYTLTISSLQPEDFATYFCQQSEKLPRTFGGGTKVEIR light: EIVLTQSPATLSLSPGERATLSCRASSSVSYMHWYQQKPGQAPRPWIYATSNLASGIPARFSGSRSGTDYTLTISSLEPEDFAVYYCQQWSSNTLTFGGGTKVEIKRTVAAPSVFIFPPSDEQLKSGTASVVCLLNNFYPREAKVQWKVDNALQSGNSQESVTEQDSKDSTYSLSSTLTLSKADYEKHKVYACEVTHQGLSSPVTKSFNRGEC | binds | binds | – |
| Ly2122 (bispecific antibody, human IgG1, kappa, Bispecific B7H3 (two Fabs) / CD137 (terminal Fv)) chain 1: QVQLVQSGAEVKKPGASVKVSCKASGYTFTSYVMHWVRQKPGQGLEWIGYINPYNEGTESTDKFKGRATMTSDKSTSTVYMELSSLRSEDTAVYYCASIYYGYEGTYFGVWGQGTLVTVSSASTKGPSVFPLAPSSKSTSGGTAALGCLVKDYFPEPVTVSWNSGALTSGVHTFPAVLQSSGLYSLSSVVTVPSSSLGTQTYICNVNHKPSNTKVDKKVEPKSCDKTHTCPPCPAPEAAGPSVFLFPPKPKDTLMISRTPEVTCVVVDVSHEDPEVKFNWYVDGVEVHNAKTKPREEQYNSTYRVVSVLTVLHQDWLNGKEYKCKVSNKALPAPIEKTISKAKGQPREPQVYTLPPSREEMTKNQVSLWCLVKGFYPSDIAVEWESNGQPENNYKTTPPVLDSDGSFFLYSKLTVDKSRWQQGNVFSCSVMHEALHNHYTQKSLSLSPGGGGGSGGGGSGGGGSGGGGSQVQLVQSGAEVKKPGASVKVSCKASGYTFAGFEMHWVRQAPGQGLEWMGAIDPKTGGTDYNQKFKDRVTMTRDTSISTAYMELSRLRSDDTAVYYCARDLGYFDVWGQGTLVTVSS chain 2: QVQLVQSGAEVKKPGASVKVSCKASGYTFTSYVMHWVRQKPGQGLEWIGYINPYNEGTESTDKFKGRATMTSDKSTSTVYMELSSLRSEDTAVYYCASIYYGYEGTYFGVWGQGTLVTVSSASTKGPSVFPLAPSSKSTSGGTAALGCLVKDYFPEPVTVSWNSGALTSGVHTFPAVLQSSGLYSLSSVVTVPSSSLGTQTYICNVNHKPSNTKVDKKVEPKSCDKTHTCPPCPAPEAAGPSVFLFPPKPKDTLMISRTPEVTCVVVDVSHEDPEVKFNWYVDGVEVHNAKTKPREEQYNSTYRVVSVLTVLHQDWLNGKEYKCKVSNKALPAPIEKTISKAKGQPREPQVYTLPPSREEMTKNQVSLSCAVKGFYPSDIAVEWESNGQPENNYKTTPPVLDSDGSFFLVSKLTVDKSRWQQGNVFSCSVMHEALHNRFTQKSLSLSPGGGGGSGGGGSGGGGSGGGGSDIQMTQSPSSLSASVGDRVTITCRASQDIRSNLNWYQQKPGGAVKLLIYYTSRLHSGVPSRFSGSGSGTDYTLTISSLQPEDFATYFCQQSEKLPRTFGGGTKVEIR light: EIVLTQSPATLSLSPGERATLSCRASSSVSYMHWYQQKPGQAPRPWIYATSNLASGIPARFSGSRSGTDYTLTISSLEPEDFAVYYCQQWSSNTLTFGGGTKVEIKRTVAAPSVFIFPPSDEQLKSGTASVVCLLNNFYPREAKVQWKVDNALQSGNSQESVTEQDSKDSTYSLSSTLTLSKADYEKHKVYACEVTHQGLSSPVTKSFNRGEC | binds | binds | – |
| Ly2438 (bispecific antibody, PD-L1/CD40: two PD-L1 Fabs (Ly076), central CD40 Fv (TM559)) chain 1: QVQLVQSGAEVKKPGASVKVSCKASGYTFTDFWMSWVRQAPGQGLEWMGQIYPNTGTTHSNEKFKGRVTMTRDTSTSTVYMELSSLRSEDTAVYYCARSYHISTTPNWFAYWGQGTLVTVSSASTKGPSVFPLAPSSKSTSGGTAALGCLVKDYFPEPVTVSWNSGALTSGVHTFPAVLQSSGLYSLSSVVTVPSSSLGTQTYICNVNHKPSNTKVDKKVEPKSCGGGGSGGGGSGGGGSGGGGSEVQLVESGGGLVQPGGSLRLSCAASGFTFTNYGLHWVRQAPGKGLEWVSSISPSGGVTYYRDSVKGRFTISRDNSKNTLYLQMNSLRAEDTAVYYCAKPFLGWGGANWIAHWGQGTLVTVSSGGGGSDKTHTCPPCPAPEAAGPSVFLFPPKPKDTLMISRTPEVTCVVVDVSHEDPEVKFNWYVDGVEVHNAKTKPREEQYNSTYRVVSVLTVLHQDWLNGKEYKCKVSNKALPAPIEKTISKAKGQPREPQVYTLPPSREEMTKNQVSLWCLVKGFYPSDIAVEWESNGQPENNYKTTPPVLDSDGSFFLYSKLTVDKSRWQQGNVFSCSVMHEALHNHYTQKSLSLSPG chain 2: QVQLVQSGAEVKKPGASVKVSCKASGYTFTDFWMSWVRQAPGQGLEWMGQIYPNTGTTHSNEKFKGRVTMTRDTSTSTVYMELSSLRSEDTAVYYCARSYHISTTPNWFAYWGQGTLVTVSSASTKGPSVFPLAPSSKSTSGGTAALGCLVKDYFPEPVTVSWNSGALTSGVHTFPAVLQSSGLYSLSSVVTVPSSSLGTQTYICNVNHKPSNTKVDKKVEPKSCGGGGSGGGGSGGGGSGGGGSDIQMTQSPSSLSASVGDRVTITCLASEDISNDLAWYQQKPGKAPKLLIYFVDRLLDGVPSRFSGSGSGTDFTLTISSLQPEDFATYYCQQSYKYPPTFGQGTKLEIKGGGGSDKTHTCPPCPAPEAAGPSVFLFPPKPKDTLMISRTPEVTCVVVDVSHEDPEVKFNWYVDGVEVHNAKTKPREEQYNSTYRVVSVLTVLHQDWLNGKEYKCKVSNKALPAPIEKTISKAKGQPREPQVYTLPPSREEMTKNQVSLSCAVKGFYPSDIAVEWESNGQPENNYKTTPPVLDSDGSFFLVSKLTVDKSRWQQGNVFSCSVMHEALHNRFTQKSLSLSPG light: DIQMTQSPSSLSASVGDRVTITCKASQNVYKKLEWYQQKPGKVPKVLIYHTNILQTGVPSRFSGSGSGTDYTLTISSLQPEDVATYYCYQWNSGPTFGGGTKVEIKRTVAAPSVFIFPPSDEQLKSGTASVVCLLNNFYPREAKVQWKVDNALQSGNSQESVTEQDSKDSTYSLSSTLTLSKADYEKHKVYACEVTHQGLSSPVTKSFNRGEC | – | – | binds |
| Ly2444 (bispecific antibody, human IgG1, kappa, PD-L1/CD40: two PD-L1 Fabs (Ly076), terminal CD40 Fv (TM559)) chain 1: QVQLVQSGAEVKKPGASVKVSCKASGYTFTDFWMSWVRQAPGQGLEWMGQIYPNTGTTHSNEKFKGRVTMTRDTSTSTVYMELSSLRSEDTAVYYCARSYHISTTPNWFAYWGQGTLVTVSSASTKGPSVFPLAPSSKSTSGGTAALGCLVKDYFPEPVTVSWNSGALTSGVHTFPAVLQSSGLYSLSSVVTVPSSSLGTQTYICNVNHKPSNTKVDKKVEPKSCDKTHTCPPCPAPEAAGPSVFLFPPKPKDTLMISRTPEVTCVVVDVSHEDPEVKFNWYVDGVEVHNAKTKPREEQYNSTYRVVSVLTVLHQDWLNGKEYKCKVSNKALPAPIEKTISKAKGQPREPQVYTLPPSREEMTKNQVSLWCLVKGFYPSDIAVEWESNGQPENNYKTTPPVLDSDGSFFLYSKLTVDKSRWQQGNVFSCSVMHEALHNHYTQKSLSLSPGGGGGSGGGGSGGGGSGGGGSEVQLVESGGGLVQPGGSLRLSCAASGFTFTNYGLHWVRQAPGKGLEWVSSISPSGGVTYYRDSVKGRFTISRDNSKNTLYLQMNSLRAEDTAVYYCAKPFLGWGGANWIAHWGQGTLVTVSS chain 2: QVQLVQSGAEVKKPGASVKVSCKASGYTFTDFWMSWVRQAPGQGLEWMGQIYPNTGTTHSNEKFKGRVTMTRDTSTSTVYMELSSLRSEDTAVYYCARSYHISTTPNWFAYWGQGTLVTVSSASTKGPSVFPLAPSSKSTSGGTAALGCLVKDYFPEPVTVSWNSGALTSGVHTFPAVLQSSGLYSLSSVVTVPSSSLGTQTYICNVNHKPSNTKVDKKVEPKSCDKTHTCPPCPAPEAAGPSVFLFPPKPKDTLMISRTPEVTCVVVDVSHEDPEVKFNWYVDGVEVHNAKTKPREEQYNSTYRVVSVLTVLHQDWLNGKEYKCKVSNKALPAPIEKTISKAKGQPREPQVYTLPPSREEMTKNQVSLSCAVKGFYPSDIAVEWESNGQPENNYKTTPPVLDSDGSFFLVSKLTVDKSRWQQGNVFSCSVMHEALHNRFTQKSLSLSPGGGGGSGGGGSGGGGSGGGGSDIQMTQSPSSLSASVGDRVTITCLASEDISNDLAWYQQKPGKAPKLLIYFVDRLLDGVPSRFSGSGSGTDFTLTISSLQPEDFATYYCQQSYKYPPTFGQGTKLEIK light: DIQMTQSPSSLSASVGDRVTITCKASQNVYKKLEWYQQKPGKVPKVLIYHTNILQTGVPSRFSGSGSGTDYTLTISSLQPEDVATYYCYQWNSGPTFGGGTKVEIKRTVAAPSVFIFPPSDEQLKSGTASVVCLLNNFYPREAKVQWKVDNALQSGNSQESVTEQDSKDSTYSLSSTLTLSKADYEKHKVYACEVTHQGLSSPVTKSFNRGEC | – | – | binds |

Reference: patent US20250388669A1 (published 2025)
